US20240261333A1 (published 2024)

What was measured:
[1] = target: RPL5 (UniProt P46777 2-297); assay: co-IP, anti-FLAG, N-FLAG B3GNT2 cell lysate, mass spectrometry
Experimental: (§1) Cells were plated in 10-cm cell culture dishes and grown to 60-80% confluency. For each condition, two biological replicates were harvested for co-IP. Cells were washed with PBS and 4 mL of lysis buffer (20 mM HEPES, 1% Triton X-100, 150 mM NaCl, 1 mM EDTA, and 10% glycerol) containing protease inhibitor cocktail was added. Cells were scraped and lysate was incubated at 4° C. under rotary agitation for 1 h. Lysate was centrifuged at 14,000×g for 10 min at 4° C. Supernatant was transferred to a new tube and an aliquot was taken as the input. […] For Western blots, 10 μg/mL Chicken Anti-FLAG (Aves labs ET-DY100) and IgY control (R&D Systems AB-101-C) antibodies were biotinylated (Thermo Fisher Scientific 90407) and added to the respective conditions. Lysates with antibodies were incubated at 4° C. under rotary agitation overnight. For each mL of lysate, 50 μL of Pierce Protein A/G Magnetic Beads (Mass spectrometry; Thermo Fisher Scientific 88803) or Pierce Streptavidin Magnetic Beads (Western blot; Thermo Fisher Scientific 88817) was washed twice with lysis buffer. Lysates with antibodies were added to the beads and incubated at 4° C. under rotary agitation for 4 h. Beads were washed with lysis buffer 3 times and resuspended in lysis buffer for storage.
(§2) Magnetic beads were resuspended in 100 mM Tris pH 7.8, reduced, alkylated and digested with trypsin at 37° ° C. overnight. This solution was subjected to solid phase extraction to concentrate the peptides and remove unwanted reagents followed by injection onto a Shimadzu HPLC with fraction collector. Eight fractions were collected and after concentration were injected on a Waters NanoAcquity HPLC equipped with a self-packed Aeris 3 μm C18 analytical column 0.075 mm by 20 cm, (Phenomenex). Peptides were eluted using standard reverse-phase gradients. The effluent from the column was analyzed using a Thermo Orbitrap Elite mass spectrometer (nanospray configuration) operated in a data dependent manner for 54 minutes. The resulting fragmentation spectra were correlated against the known database using Proteome Discover 1.4 (Thermo Fisher Scientific).

[2] = target: T1, ARG1 (UniProt P05089 1-322); assay: as above
T1 construct: also called NP_000036.2 (+1)
T1 sequence (looked up): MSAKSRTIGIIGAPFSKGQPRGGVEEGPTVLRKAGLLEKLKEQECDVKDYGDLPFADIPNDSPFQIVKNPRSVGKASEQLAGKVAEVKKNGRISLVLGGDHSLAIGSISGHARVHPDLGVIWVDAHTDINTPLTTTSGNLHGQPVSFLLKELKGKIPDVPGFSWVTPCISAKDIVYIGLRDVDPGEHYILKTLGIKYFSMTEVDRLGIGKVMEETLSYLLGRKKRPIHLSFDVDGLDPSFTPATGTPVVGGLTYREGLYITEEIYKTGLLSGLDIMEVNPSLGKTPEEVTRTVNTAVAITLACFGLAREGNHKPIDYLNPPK
Experimental: as §1, §2

[3] = target: RPS8 (UniProt P62241 2-208); assay: as above
Experimental: as §1, §2

[4] = target: T2, LIMA1 (UniProt Q9UHB6-4 1-760, limits assumed); assay: as above
T2 construct: also called NP_001107018.1 (+1)
Experimental: as §1, §2

[5] = target: RPS16 (UniProt P62249 2-146); assay: as above
Experimental: as §1, §2

[6] = target: T3, TXN (UniProt P10599 2-105); assay: as above
T3 construct: also called NP_003320.2
T3 sequence (looked up): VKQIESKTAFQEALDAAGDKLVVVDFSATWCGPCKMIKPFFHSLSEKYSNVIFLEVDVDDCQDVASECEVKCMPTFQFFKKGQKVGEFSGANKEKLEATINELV
Experimental: as §1, §2

[7] = target: RPS19 (UniProt P39019 2-145); assay: as above
Experimental: as §1, §2

[8] = target: T4, CFL1 (UniProt P23528 2-166); assay: as above
T4 construct: also called NP_005498.1
Experimental: as §1, §2

[9] = target: T5, SRSF3 (UniProt P84103 1-164); assay: as above
T5 construct: also called NP_003008.1
T5 sequence (looked up): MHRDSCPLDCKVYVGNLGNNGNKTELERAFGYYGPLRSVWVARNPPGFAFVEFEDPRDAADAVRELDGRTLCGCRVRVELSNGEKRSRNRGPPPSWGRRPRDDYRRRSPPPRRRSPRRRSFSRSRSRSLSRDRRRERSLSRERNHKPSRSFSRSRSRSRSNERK
Experimental: as §1, §2

[10] = target: RPS18 (UniProt P62269 2-152); assay: as above
Experimental: as §1, §2

[11] = target: T6, HNRNPU (UniProt Q00839 2-825); assay: as above
T6 construct: also called NP_114032.2
Experimental: as §1, §2

[12] = target: RPS13 (UniProt P62277 2-151); assay: as above
Experimental: as §1, §2

[13] = target: T7, ELOC (human, UniProt Q15369 1-112); assay: anti-FLAG co-IP from lysate of N-FLAG B3GNT2 cells, mass spectrometry
T7 construct: also called NP_001191791.1
Experimental: as §1, §2

[14] = target: T8, IPO7 (human, UniProt O95373 1-1038); assay: as above
T8 construct: also called NP_006382.1
Experimental: as §1, §2

T7 sequence (Q15369 whole entry): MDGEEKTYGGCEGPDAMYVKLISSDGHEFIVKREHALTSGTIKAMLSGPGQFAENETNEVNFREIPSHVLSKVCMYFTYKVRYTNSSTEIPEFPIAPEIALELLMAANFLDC
T8 sequence (O95373 whole entry): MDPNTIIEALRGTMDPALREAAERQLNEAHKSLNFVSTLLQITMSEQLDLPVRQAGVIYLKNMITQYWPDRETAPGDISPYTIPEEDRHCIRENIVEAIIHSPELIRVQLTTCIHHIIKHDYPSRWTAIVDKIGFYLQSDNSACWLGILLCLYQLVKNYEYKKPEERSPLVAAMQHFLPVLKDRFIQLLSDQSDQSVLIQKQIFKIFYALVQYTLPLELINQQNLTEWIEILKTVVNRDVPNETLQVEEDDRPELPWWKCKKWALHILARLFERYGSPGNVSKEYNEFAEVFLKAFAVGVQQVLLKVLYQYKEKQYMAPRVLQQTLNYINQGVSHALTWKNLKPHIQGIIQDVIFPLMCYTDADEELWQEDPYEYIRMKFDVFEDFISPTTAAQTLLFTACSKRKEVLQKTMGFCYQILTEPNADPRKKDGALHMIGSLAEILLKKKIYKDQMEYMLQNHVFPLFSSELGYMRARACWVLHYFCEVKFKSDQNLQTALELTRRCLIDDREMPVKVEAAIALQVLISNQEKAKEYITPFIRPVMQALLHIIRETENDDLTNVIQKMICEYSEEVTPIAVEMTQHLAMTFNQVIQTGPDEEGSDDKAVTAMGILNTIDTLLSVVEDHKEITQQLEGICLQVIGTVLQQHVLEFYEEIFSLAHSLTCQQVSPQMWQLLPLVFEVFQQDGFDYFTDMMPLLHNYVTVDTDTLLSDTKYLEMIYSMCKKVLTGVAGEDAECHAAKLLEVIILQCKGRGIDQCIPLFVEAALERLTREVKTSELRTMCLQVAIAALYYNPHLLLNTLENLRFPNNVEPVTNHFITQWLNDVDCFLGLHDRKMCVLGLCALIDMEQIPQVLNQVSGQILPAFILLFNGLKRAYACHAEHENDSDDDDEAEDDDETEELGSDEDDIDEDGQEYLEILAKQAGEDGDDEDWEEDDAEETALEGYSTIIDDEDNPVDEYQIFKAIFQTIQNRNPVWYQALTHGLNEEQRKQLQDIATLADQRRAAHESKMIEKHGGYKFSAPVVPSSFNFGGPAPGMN
T4 sequence (P23528 2-166 limits assumed): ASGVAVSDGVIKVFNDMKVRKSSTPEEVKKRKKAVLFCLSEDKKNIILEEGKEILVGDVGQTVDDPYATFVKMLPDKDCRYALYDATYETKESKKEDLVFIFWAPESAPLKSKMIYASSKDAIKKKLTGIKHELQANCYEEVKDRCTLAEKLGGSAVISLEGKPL
T2 sequence (Q9UHB6 other isoform, or with tags, fused parts or gaps limits assumed): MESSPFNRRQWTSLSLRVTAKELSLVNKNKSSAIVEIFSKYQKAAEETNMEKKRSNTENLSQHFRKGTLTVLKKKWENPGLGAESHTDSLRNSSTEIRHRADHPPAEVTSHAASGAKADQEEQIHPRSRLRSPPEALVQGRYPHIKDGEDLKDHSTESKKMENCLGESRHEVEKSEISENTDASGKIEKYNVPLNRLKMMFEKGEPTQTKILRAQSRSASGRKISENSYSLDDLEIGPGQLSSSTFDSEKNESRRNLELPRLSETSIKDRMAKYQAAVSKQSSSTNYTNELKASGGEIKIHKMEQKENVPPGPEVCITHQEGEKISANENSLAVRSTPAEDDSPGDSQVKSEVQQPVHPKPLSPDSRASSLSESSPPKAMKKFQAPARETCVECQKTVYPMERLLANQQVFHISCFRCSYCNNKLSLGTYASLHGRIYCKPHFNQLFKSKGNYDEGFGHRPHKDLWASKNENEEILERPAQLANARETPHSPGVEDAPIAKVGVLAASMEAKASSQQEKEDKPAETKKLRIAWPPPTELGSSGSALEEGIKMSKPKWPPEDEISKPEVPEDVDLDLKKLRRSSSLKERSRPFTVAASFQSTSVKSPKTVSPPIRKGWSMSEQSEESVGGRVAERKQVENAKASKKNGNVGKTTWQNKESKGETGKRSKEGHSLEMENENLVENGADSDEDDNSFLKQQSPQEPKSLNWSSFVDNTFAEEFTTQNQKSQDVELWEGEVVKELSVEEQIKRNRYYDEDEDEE
T6 sequence (Q00839 2-825 limits assumed): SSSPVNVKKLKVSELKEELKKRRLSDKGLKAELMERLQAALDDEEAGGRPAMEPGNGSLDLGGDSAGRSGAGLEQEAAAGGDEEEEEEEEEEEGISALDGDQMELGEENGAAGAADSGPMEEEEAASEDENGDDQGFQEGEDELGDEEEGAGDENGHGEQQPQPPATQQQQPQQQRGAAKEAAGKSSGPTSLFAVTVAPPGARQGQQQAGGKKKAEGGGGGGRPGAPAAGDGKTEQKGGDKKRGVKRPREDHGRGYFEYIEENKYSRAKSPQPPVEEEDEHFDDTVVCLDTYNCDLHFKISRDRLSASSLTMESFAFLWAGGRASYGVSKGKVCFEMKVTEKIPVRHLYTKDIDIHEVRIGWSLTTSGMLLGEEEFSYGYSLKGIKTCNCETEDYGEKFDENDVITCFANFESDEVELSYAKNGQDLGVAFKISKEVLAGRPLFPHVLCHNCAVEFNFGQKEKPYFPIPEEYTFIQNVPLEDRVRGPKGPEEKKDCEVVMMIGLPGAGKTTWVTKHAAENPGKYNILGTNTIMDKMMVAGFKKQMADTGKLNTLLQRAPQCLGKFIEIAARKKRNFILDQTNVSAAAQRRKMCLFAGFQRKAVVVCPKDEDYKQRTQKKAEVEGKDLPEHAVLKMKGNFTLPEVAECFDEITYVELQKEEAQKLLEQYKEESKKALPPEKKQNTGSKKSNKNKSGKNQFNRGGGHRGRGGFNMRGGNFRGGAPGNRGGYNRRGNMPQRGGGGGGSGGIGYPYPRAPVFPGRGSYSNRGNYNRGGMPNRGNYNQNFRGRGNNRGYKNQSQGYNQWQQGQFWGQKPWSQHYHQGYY

B1: N-terminal FLAG tagged B3GNT2 (enzyme, human, UniProt Q9NY97 1-397, looked up)
chain: MSVGRRRIKLLGILMMANVFIYFIMEVSKSSSQEKNGKGEVIIPKEKFWKISTPPEAYWNREQEKLNRQYNPILSMLTNQTGEAGRLSNISHLNYCEPDLRVTSVVTGFNNLPDRFKDFLLYLRCRNYSLLIDQPDKCAKKPFLLLAIKSLTPHFARRQAIRESWGQESNAGNQTVVRVFLLGQTPPEDNHPDLSDMLKFESEKHQDILMWNYRDTFFNLSLKEVLFLRWVSTSCPDTEFVFKGDDDVFVNTHHILNYLNSLSKTKAKDLFIGDVIHNAGPHRDKKLKYYIPEVVYSGLYPPYAGGGGFLYSGHLALRLYHITDQVHLYPIDDVYTGMCLQKLGLVPEKHKGFRTFDIEEKNKNNICSYVDLMLVHSRKPQEMIDIWSQLQSAHLKC
notes: Bait of the co-IP; pulled down with mouse anti-FLAG from cell lysate; also called N-FLAG B3GNT2; N-term FLAG; not shown: FLAG tag at the N-terminus
[1]
  co-IP mass spectrometry count: 0
[2]
  co-IP mass spectrometry count: 8
[3]
  co-IP mass spectrometry count: 6
[4]
  co-IP mass spectrometry count: 4
[5]
  co-IP mass spectrometry count: 9
[6]
  co-IP mass spectrometry count: 3
[7]
  co-IP mass spectrometry count: 5
[8]
  co-IP mass spectrometry count: 5
[9]
  co-IP mass spectrometry count: 6
[10]
  co-IP mass spectrometry count: 15
[11]
  co-IP mass spectrometry count: 0
[12]
  co-IP mass spectrometry count: 3

B2: N-terminal FLAG tagged B3GNT2 (enzyme, human, UniProt Q9NY97 1-397, looked up)
chain: B1 chain
notes: Bait of the co-IP; pulled down from cell lysate with mouse anti-FLAG antibody; also called N-FLAG B3GNT2; N-term FLAG; not shown: N-terminal FLAG tag
[13]
  co-IP mass spectrometry count: 0
[14]
  co-IP mass spectrometry count: 0
